Source: patent US12679878B2, “CRF2 receptor agonists and their use in therapy” (SANOFI, priority 2020, dated 2026)
Starred links: 1 amine or outer side, 2 acyl side, 3 side chain; linkers in the order of their positions; H or OH if unused. Non-standard residues stand in square brackets, D forms with d. Groups on a side chain read outwards from the residue. No end group written: not given here. *: point of attachment. C18 diacid = O=C(O)CCCCCCCCCCCCCCCCC(=O)*; γGlu = O=C(O)[C@H](CCC(=O)[*:2])N[*:1]; Palmitoyl = CCCCCCCCCCCCCCCC(=O)*; AEEA = NCCOCCOCC(=O)O; Aib = CC(C)(N)C(=O)O

molecular target: human corticotropin-releasing factor 2α (CRF2 α receptor) (human), Q13324; experiment: cell-based or functional assay
Sequence (Q13324 20-411): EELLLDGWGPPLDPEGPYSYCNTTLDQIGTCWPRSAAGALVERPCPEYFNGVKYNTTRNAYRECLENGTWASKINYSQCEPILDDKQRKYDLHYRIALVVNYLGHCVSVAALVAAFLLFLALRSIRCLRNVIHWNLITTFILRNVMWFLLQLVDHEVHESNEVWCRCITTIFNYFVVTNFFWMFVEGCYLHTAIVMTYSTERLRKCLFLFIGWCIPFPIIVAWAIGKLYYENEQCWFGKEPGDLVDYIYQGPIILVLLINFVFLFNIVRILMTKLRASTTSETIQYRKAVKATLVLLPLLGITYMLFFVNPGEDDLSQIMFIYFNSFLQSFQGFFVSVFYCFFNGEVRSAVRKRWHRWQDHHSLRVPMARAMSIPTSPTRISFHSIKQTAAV

| Binder | EC50 [nM], 0% HSA [nM] | EC50 [nM], 0.1% HSA [nM] |
| --- | --- | --- |
| FTLSLDVPTKIK([AEEA-AEEA-γGlu-C18 diacid])QILLKQERQKKQRQKAKKNKQILERV-NH2 (N-terminus assumed; SMILES CC[C@H](C)[C@H](NC(=O)[C@H](CCC(N)=O)NC(=O)[C@H](CCCCN)NC(=O)[C@H](CC(N)=O)NC(=O)[C@H](CCCCN)NC(=O)[C@H](CCCCN)NC(=O)[C@H](C)NC(=O)[C@H](CCCCN)NC(=O)[C@H](CCC(N)=O)NC(=O)[C@H](CCCNC(=N)N)NC(=O)[C@H](CCC(N)=O)NC(=O)[C@H](CCCCN)NC(=O)[C@H](CCCCN)NC(=O)[C@H](CCC(N)=O)NC(=O)[C@H](CCCNC(=N)N)NC(=O)[C@H](CCC(=O)O)NC(=O)[C@H](CCC(N)=O)NC(=O)[C@H](CCCCN)NC(=O)[C@H](CC(C)C)NC(=O)[C@H](CC(C)C)NC(=O)[C@@H](NC(=O)[C@H](CCC(N)=O)NC(=O)[C@H](CCCCNC(=O)COCCOCCNC(=O)COCCOCCNC(=O)CC[C@H](NC(=O)CCCCCCCCCCCCCCCCC(=O)O)C(=O)O)NC(=O)[C@@H](NC(=O)[C@H](CCCCN)NC(=O)[C@@H](NC(=O)[C@@H]1CCCN1C(=O)[C@@H](NC(=O)[C@H](CC(=O)O)NC(=O)[C@H](CC(C)C)NC(=O)[C@H](CO)NC(=O)[C@H](CC(C)C)NC(=O)[C@@H](NC(=O)[C@@H](N)Cc1ccccc1)[C@@H](C)O)C(C)C)[C@@H](C)O)[C@@H](C)CC)[C@@H](C)CC)C(=O)N[C@@H](CC(C)C)C(=O)N[C@@H](CCC(=O)O)C(=O)N[C@@H](CCCNC(=N)N)C(=O)N[C@H](C(N)=O)C(C)C) [SEQ ID NO: 145] | 1.46 | 96.9 |
| FTLSLDVPTKIK([AEEA-AEEA-γGlu-C18 diacid])QILLKQERQKKQRQKAKTNKQILERV-NH2 (N-terminus assumed; SMILES CC[C@H](C)[C@H](NC(=O)[C@H](CCC(N)=O)NC(=O)[C@H](CCCCN)NC(=O)[C@H](CC(N)=O)NC(=O)[C@@H](NC(=O)[C@H](CCCCN)NC(=O)[C@H](C)NC(=O)[C@H](CCCCN)NC(=O)[C@H](CCC(N)=O)NC(=O)[C@H](CCCNC(=N)N)NC(=O)[C@H](CCC(N)=O)NC(=O)[C@H](CCCCN)NC(=O)[C@H](CCCCN)NC(=O)[C@H](CCC(N)=O)NC(=O)[C@H](CCCNC(=N)N)NC(=O)[C@H](CCC(=O)O)NC(=O)[C@H](CCC(N)=O)NC(=O)[C@H](CCCCN)NC(=O)[C@H](CC(C)C)NC(=O)[C@H](CC(C)C)NC(=O)[C@@H](NC(=O)[C@H](CCC(N)=O)NC(=O)[C@H](CCCCNC(=O)COCCOCCNC(=O)COCCOCCNC(=O)CC[C@H](NC(=O)CCCCCCCCCCCCCCCCC(=O)O)C(=O)O)NC(=O)[C@@H](NC(=O)[C@H](CCCCN)NC(=O)[C@@H](NC(=O)[C@@H]1CCCN1C(=O)[C@@H](NC(=O)[C@H](CC(=O)O)NC(=O)[C@H](CC(C)C)NC(=O)[C@H](CO)NC(=O)[C@H](CC(C)C)NC(=O)[C@@H](NC(=O)[C@@H](N)Cc1ccccc1)[C@@H](C)O)C(C)C)[C@@H](C)O)[C@@H](C)CC)[C@@H](C)CC)[C@@H](C)O)C(=O)N[C@@H](CC(C)C)C(=O)N[C@@H](CCC(=O)O)C(=O)N[C@@H](CCCNC(=N)N)C(=O)N[C@H](C(N)=O)C(C)C) [SEQ ID NO: 144] | 1.36 | 76.3 |
| FTLSLDVPTKIK([γGlu-Palmitoyl])QKLFKQAKQKKQRQKAKTNAQILARV-NH2 (N-terminus assumed; SMILES CCCCCCCCCCCCCCCC(=O)N[C@@H](CCC(=O)NCCCC[C@H](NC(=O)[C@@H](NC(=O)[C@H](CCCCN)NC(=O)[C@@H](NC(=O)[C@@H]1CCCN1C(=O)[C@@H](NC(=O)[C@H](CC(=O)O)NC(=O)[C@H](CC(C)C)NC(=O)[C@H](CO)NC(=O)[C@H](CC(C)C)NC(=O)[C@@H](NC(=O)[C@@H](N)Cc1ccccc1)[C@@H](C)O)C(C)C)[C@@H](C)O)[C@@H](C)CC)C(=O)N[C@@H](CCC(N)=O)C(=O)N[C@@H](CCCCN)C(=O)N[C@@H](CC(C)C)C(=O)N[C@@H](Cc1ccccc1)C(=O)N[C@@H](CCCCN)C(=O)N[C@@H](CCC(N)=O)C(=O)N[C@@H](C)C(=O)N[C@@H](CCCCN)C(=O)N[C@@H](CCC(N)=O)C(=O)N[C@@H](CCCCN)C(=O)N[C@@H](CCCCN)C(=O)N[C@@H](CCC(N)=O)C(=O)N[C@@H](CCCNC(=N)N)C(=O)N[C@@H](CCC(N)=O)C(=O)N[C@@H](CCCCN)C(=O)N[C@@H](C)C(=O)N[C@@H](CCCCN)C(=O)N[C@H](C(=O)N[C@@H](CC(N)=O)C(=O)N[C@@H](C)C(=O)N[C@@H](CCC(N)=O)C(=O)N[C@H](C(=O)N[C@@H](CC(C)C)C(=O)N[C@@H](C)C(=O)N[C@@H](CCCNC(=N)N)C(=O)N[C@H](C(N)=O)C(C)C)[C@@H](C)CC)[C@@H](C)O)C(=O)O) [SEQ ID NO: 15] | 0.88 |  |
| FTLSLDVPIKLK([AEEA-AEEA-γGlu-C18 diacid])QILLKQERQKKQRQKAKKNKQILERV-NH2 (N-terminus assumed; SMILES CC[C@H](C)[C@H](NC(=O)[C@H](CCC(N)=O)NC(=O)[C@H](CCCCNC(=O)COCCOCCNC(=O)COCCOCCNC(=O)CC[C@H](NC(=O)CCCCCCCCCCCCCCCCC(=O)O)C(=O)O)NC(=O)[C@H](CC(C)C)NC(=O)[C@H](CCCCN)NC(=O)[C@@H](NC(=O)[C@@H]1CCCN1C(=O)[C@@H](NC(=O)[C@H](CC(=O)O)NC(=O)[C@H](CC(C)C)NC(=O)[C@H](CO)NC(=O)[C@H](CC(C)C)NC(=O)[C@@H](NC(=O)[C@@H](N)Cc1ccccc1)[C@@H](C)O)C(C)C)[C@@H](C)CC)C(=O)N[C@@H](CC(C)C)C(=O)N[C@@H](CC(C)C)C(=O)N[C@@H](CCCCN)C(=O)N[C@@H](CCC(N)=O)C(=O)N[C@@H](CCC(=O)O)C(=O)N[C@@H](CCCNC(=N)N)C(=O)N[C@@H](CCC(N)=O)C(=O)N[C@@H](CCCCN)C(=O)N[C@@H](CCCCN)C(=O)N[C@@H](CCC(N)=O)C(=O)N[C@@H](CCCNC(=N)N)C(=O)N[C@@H](CCC(N)=O)C(=O)N[C@@H](CCCCN)C(=O)N[C@@H](C)C(=O)N[C@@H](CCCCN)C(=O)N[C@@H](CCCCN)C(=O)N[C@@H](CC(N)=O)C(=O)N[C@@H](CCCCN)C(=O)N[C@@H](CCC(N)=O)C(=O)N[C@H](C(=O)N[C@@H](CC(C)C)C(=O)N[C@@H](CCC(=O)O)C(=O)N[C@@H](CCCNC(=N)N)C(=O)N[C@H](C(N)=O)C(C)C)[C@@H](C)CC) [SEQ ID NO: 146] | 0.11 | 4.36 |

Further lines, results first:

| EC50 [nM], 0% HSA [nM] | EC50 [nM], 0.1% HSA [nM] | Binder |
| --- | --- | --- |
| 0.18 | 8.17 | IVLSLD[dV]PIGLK([AEEA-AEEA-γGlu-C18 diacid])QILLKQERQKK[Aib]REQAETNKQILAQV-NH2 (N-terminus assumed; SMILES CC[C@H](C)[C@H](N)C(=O)N[C@H](C(=O)N[C@@H](CC(C)C)C(=O)N[C@@H](CO)C(=O)N[C@@H](CC(C)C)C(=O)N[C@@H](CC(=O)O)C(=O)N[C@@H](C(=O)N1CCC[C@H]1C(=O)N[C@H](C(=O)NCC(=O)N[C@@H](CC(C)C)C(=O)N[C@@H](CCCCNC(=O)COCCOCCNC(=O)COCCOCCNC(=O)CC[C@H](NC(=O)CCCCCCCCCCCCCCCCC(=O)O)C(=O)O)C(=O)N[C@@H](CCC(N)=O)C(=O)N[C@H](C(=O)N[C@@H](CC(C)C)C(=O)N[C@@H](CC(C)C)C(=O)N[C@@H](CCCCN)C(=O)N[C@@H](CCC(N)=O)C(=O)N[C@@H](CCC(=O)O)C(=O)N[C@@H](CCCNC(=N)N)C(=O)N[C@@H](CCC(N)=O)C(=O)N[C@@H](CCCCN)C(=O)N[C@@H](CCCCN)C(=O)NC(C)(C)C(=O)N[C@@H](CCCNC(=N)N)C(=O)N[C@@H](CCC(=O)O)C(=O)N[C@@H](CCC(N)=O)C(=O)N[C@@H](C)C(=O)N[C@@H](CCC(=O)O)C(=O)N[C@H](C(=O)N[C@@H](CC(N)=O)C(=O)N[C@@H](CCCCN)C(=O)N[C@@H](CCC(N)=O)C(=O)N[C@H](C(=O)N[C@@H](CC(C)C)C(=O)N[C@@H](C)C(=O)N[C@@H](CCC(N)=O)C(=O)N[C@H](C(N)=O)C(C)C)[C@@H](C)CC)[C@@H](C)O)[C@@H](C)CC)[C@@H](C)CC)C(C)C)C(C)C) [SEQ ID NO: 147] |
| 0.29 | 14.3 | IVLSLDVPIGLK([AEEA-AEEA-γGlu-C18 diacid])QILLKQERQKK[Aib]REQAETNKRILERV-NH2 (N-terminus assumed; SMILES CC[C@H](C)[C@H](N)C(=O)N[C@H](C(=O)N[C@@H](CC(C)C)C(=O)N[C@@H](CO)C(=O)N[C@@H](CC(C)C)C(=O)N[C@@H](CC(=O)O)C(=O)N[C@H](C(=O)N1CCC[C@H]1C(=O)N[C@H](C(=O)NCC(=O)N[C@@H](CC(C)C)C(=O)N[C@@H](CCCCNC(=O)COCCOCCNC(=O)COCCOCCNC(=O)CC[C@H](NC(=O)CCCCCCCCCCCCCCCCC(=O)O)C(=O)O)C(=O)N[C@@H](CCC(N)=O)C(=O)N[C@H](C(=O)N[C@@H](CC(C)C)C(=O)N[C@@H](CC(C)C)C(=O)N[C@@H](CCCCN)C(=O)N[C@@H](CCC(N)=O)C(=O)N[C@@H](CCC(=O)O)C(=O)N[C@@H](CCCNC(=N)N)C(=O)N[C@@H](CCC(N)=O)C(=O)N[C@@H](CCCCN)C(=O)N[C@@H](CCCCN)C(=O)NC(C)(C)C(=O)N[C@@H](CCCNC(=N)N)C(=O)N[C@@H](CCC(=O)O)C(=O)N[C@@H](CCC(N)=O)C(=O)N[C@@H](C)C(=O)N[C@@H](CCC(=O)O)C(=O)N[C@H](C(=O)N[C@@H](CC(N)=O)C(=O)N[C@@H](CCCCN)C(=O)N[C@@H](CCCNC(=N)N)C(=O)N[C@H](C(=O)N[C@@H](CC(C)C)C(=O)N[C@@H](CCC(=O)O)C(=O)N[C@@H](CCCNC(=N)N)C(=O)N[C@H](C(N)=O)C(C)C)[C@@H](C)CC)[C@@H](C)O)[C@@H](C)CC)[C@@H](C)CC)C(C)C)C(C)C) [SEQ ID NO: 148] |
